From patent US20110263816A1
No end group written: not given here.

% conv. at 24 h (covalent modification with diazo 1, MALDI-TOF MS) (E3gX, X = Arg): 73 % conv.
% conv. at 24 h (covalent modification with diazo 1, MALDI-TOF MS) (E3gX, X = His): 17 % conv.
% conv. at 24 h (covalent modification with diazo 1, MALDI-TOF MS) (E3gX, X = Trp): > 95 % conv.
% conv. at 24 h (covalent modification with diazo 1, MALDI-TOF MS) (E3gX, X = Asp): 53 % conv.
% conv. at 24 h (covalent modification with diazo 1, MALDI-TOF MS) (E3gX, X = Glu): 76 % conv.
% conv. at 24 h (covalent modification with diazo 1, MALDI-TOF MS) (E3gX, X = Gln): > 95 % conv.
% conv. at 24 h (covalent modification with diazo 1, MALDI-TOF MS) (E3gX, X = Cys): 78 % conv.
% conv. at 24 h (covalent modification with diazo 1, MALDI-TOF MS) (E3gX, X = Phe): > 95 % conv.
% conv. at 24 h (covalent modification with diazo 1, MALDI-TOF MS) (E3gX, X = Ser): 28 % conv.
% conv. at 24 h (covalent modification with diazo 1, MALDI-TOF MS) (E3gX, X = Asn): 70 % conv.
% conv. at 24 h (covalent modification with diazo 1, MALDI-TOF MS) (E3gX, X = Lys): 8 % conv.
% conv. at 24 h (covalent modification with diazo 1, MALDI-TOF MS) (E3gX, X = Tyr): > 95 % conv.
B1: K3a,eRh2 (peptide)
peptide: KISALKQKESALEQKISALEK
modifications: also: Rh2(OAc)2 dirhodium centre bound through two Glu side chains, places not given here
